Test results: IntAct's records for PubMed 20802513

B1: Focal adhesion kinase 1 (Gallus gallus (Chicken)), Q00944 (parent)
chain: MAAAYLDPNLNHTPSSSAKTHLGTGMERSPGAMERVLKVFHYFENSSEPTTWASIIRHGDATDVRGIIQKIVDCHKVKNVACYGLRLSHLQSEEVHWLHLDMGVSNVREKFELAHPPEEWKYELRIRYLPKGFLNQFTEDKPTLNFFYQQVKNDYMLEIADQVDQEIALKLGCLEIRRSYGEMRGNALEKKSNYEVLEKDVGLRRFFPKSLLDSVKAKTLRKLIQQTFRQFANLNREESILKFFEILSPVYRFDKECFKCALGSSWIISVELAIGPEEGISYLTDKGANPTHLADFNQVQTIQYSNSEDKDRKGMLQLKIAGAPEPLTVTAPSLTIAENMADLIDGYCRLVNGATQSFIIRPQKEGERALPSIPKLANNEKQGVRSHTVSVSETDDYAEIIDEEDTYTMPSTRDYEIQRERIELGRCIGEGQFGDVHQGIYMSPENPAMAVAIKTCKNCTSDSVREKFLQEALTMRQFDHPHIVKLIGVITENPVWIIMELCTLGELRSFLQVRKFSLDLASLILYAYQLSTALAYLESKRFVHRDIAARNVLVSATDCVKLGDFGLSRYMEDSTYYKASKGKLPIKWMAPESINFRRFTSASDVWMFGVCMWEILMHGVKPFQGVKNNDVIGRIENGERLPMPPNCPPTLYSLMTKCWAYDPSRRPRFTELKAQLSTILEEEKLQQEERMRMESRRQVTVSWDSGGSDEAPPKPSRPGYPSPRSSEGFYPSPQHMVQPNHYQVSGYSGSHGIPAMAGSIYPGQASLLDQTDSWNHRPQEVSAWQPNMEDSGTLDVRGMGQVLPTHLMEERLIRQQQEMEEDQRWLEKEERFLVMKPDVRLSRGSIEREDGGLQGPAGNQHIYQPVGKPDHAAPPKKPPRPGAPHLGSLASLNSPVDSYNEGVKIKPQEISPPPTANLDRSNDKVYENVTGLVKAVIEMSSKIQPAPPEEYVPMVKEVGLALRTLLATVDESLPVLPASTHREIEMAQKLLNSDLAELINKMKLAQQYVMTSLQQEYKKQMLTAAHALAVDAKNLLDVIDQARLKMISQSRPH

Variants of: B1
Conditions: with pgfrb_human PDGFRB

Row | Variant | effect of a mutation on the interaction
1 | Y5F;Y194F | disrupting interaction
